Biological target: PhoP (Mycobacterium tuberculosis, UniProt P71814 1-247)
Assay: ITC

Binder | binding result | Kd [nM]
icl -301 (dsDNA) DNA 1: CCCAAGGCAGTCGCCTCGCTGTTCAATCTGT DNA 2: ACAGATTGAACAGCGAGGCGACTGCCTTGGG | no binding | 
fas (dsDNA) DNA 1: CGGCGTAGAGCGAATTCCCAGCATAACG DNA 2: CGTTATGCTGGGAATTCGCTCTACGCCG |  | 144 ± 6
hsp (dsDNA) DNA 1: CCGGACACAGCTAACTCACAACGAAGCA DNA 2: TGCTTCGTTGTGAGTTAGCTGTGTCCGG |  | 51.5 ± 4.3
icl -343 (dsDNA) DNA 1: GACCGCGCTGTTACAACGCTCACATATGTGG DNA 2: CCACATATGTGAGCGTTGTAACAGCGCGGTC | no binding | 
Rv0964c (dsDNA) DNA 1: GCGCGCACGGCACACGCACCGCATCGGC DNA 2: GCCGATGCGGTGCGTGTGCCGTGCGCGC |  | 4350 ± 189
papA4 (dsDNA) DNA 1: AGTATCACTGCCCGATCACCGGTCGCCC DNA 2: GGGCGACCGGTGATCGGGCAGTGATACT | no binding | 
lipF -572 (dsDNA) DNA 1: AGACGTACAGCAAACTCCCAGTCATACA DNA 2: TGTATGACTGGGAGTTTGCTGTACGTCT |  | 115 ± 8
pks3 -236 (dsDNA) DNA 1: CGACGTCTGGTAGCGGCATGGCAACGGCCTGTG DNA 2: CACAGGCCGTTGCCATGCCGCTACCAGACGTCG |  | 130 ± 11
icl +20 (dsDNA) DNA 1: ACCCCGAAGAGCGCGGAGCAGATCCAGCAGG DNA 2: CCTGCTGGATCTGCTCCGCGCTCTTCGGGGT | no binding | 
sirA (dsDNA) DNA 1: CGTCTCCCAGCGGATTCCCGGGTCGGCC DNA 2: GGCCGACCCGGGAATCCGCTGGGAGACG |  | 332 ± 17
pks2 (dsDNA) DNA 1: AAAGACACAGCTACATCGAAGGATTGCT DNA 2: AGCAATCCTTCGATGTAGCTGTGTCTTT |  | 154 ± 12
phoP -55 (dsDNA) DNA 1: AGACTACTGGCAACGAGCTTTCAGGAATTACAC DNA 2: GTGTAATTCCTGAAAGCTCGTTGCCAGTAGTCT |  | 104 ± 10
Rv0520 (dsDNA) DNA 1: GCCCGCACAGCCACGCCGTAGCACCGGC DNA 2: GCCGGTGCTACGGCGTGGCTGTGCGGGC |  | 472 ± 20
Rv2331 (dsDNA) DNA 1: GTCCTCGCAGCAAGAAAACAGCGAAAGC DNA 2: GCTTTCGCTGTTTTCTTGCTGCGAGGAC |  | 130 ± 6.1
Rv3881c (dsDNA) DNA 1: ATGGTCACAGTCGGGCCACAGTTCGAG DNA 2: CTCGAACTGTGGCCCGACTGTGACCAT |  | 714 ± 51
ptrBa -244 (dsDNA) DNA 1: ATCTTCACACCGGACTCGTCGCGGTACT DNA 2: AGTACCGCGACGAGTCCGGTGTGAAGAT | no binding | 
icl -400 (dsDNA) DNA 1: TCATCTCCCACGTTCACCCGGCTGGTTCG DNA 2: CGAACCAGCCGGGTGAACGTGGGAGATGA | no binding | 
cadI (dsDNA) DNA 1: CGGTACACAGCGCTTGCAGGGCTTCAGG DNA 2: CCTGAAGCCCTGCAAGCGCTGTGTACCG |  | 403 ± 20

Binder | binding result | Kd [nM]
Rv2633c (dsDNA) DNA 1: TGATTCACAGCTACCTCACATTAATGGG DNA 2: CCCATTAATGTGAGGTAGCTGTGAATCA |  | 37 ± 3.7
Rv1217c (dsDNA) DNA 1: GAGGTCGCAGCCGAGCAACAGGTGGCAA DNA 2: TTGCCACCTGTTGCTCGGCTGCGACCTC |  | 588 ± 17
espA -215 (dsDNA) DNA 1: CGCATTGTCGCAGCGCAGTTGCAGGAGGGCAA DNA 2: TTGCCCTCCTGCAACTGCGCTGCGACAATGCG |  | 1590 ± 50
icl -350 (dsDNA) DNA 1: GGTTGGTCGACCGCGCTGTTACAACGCTCAC DNA 2: GTGAGCGTTGTAACAGCGCGGTCGACCAACC | no binding | 
Rv3877 (dsDNA) DNA 1: CTCGGCGCAGCGCGCGCTCAGCGACGCC DNA 2: GGCGTCGCTGAGCGCGCGCTGCGCCGAG |  | 1150 ± 66
PPE50 (dsDNA) DNA 1: CTTTTCACAGCAAAGTCCCAGAAATGGC DNA 2: GCCATTTCTGGGACTTTGCTGTGAAAAG |  | 45.7 ± 1.7
phoP -64 (dsDNA) DNA 1: GACTGTTAGCAGACTACTGGCAACGAGCTTTC DNA 2: GAAAGCTCGTTGCCAGTAGTCTGCTAACAGTC | no binding | 
Rv3312a (dsDNA) DNA 1: TGGGTCACAGCGAGTAATCAGCAAGTTC DNA 2: GAACTTGCTGATTACTCGCTGTGACCCA |  | 160 ± 8
Rv1639c (dsDNA) DNA 1: CGGATCACAGGAAACCCCCAACAAATCA DNA 2: TGATTTGTTGGGGGTTTCCTGTGATCCG |  | 198 ± 12
cfp2 (dsDNA) DNA 1: TCGCTCACAGCTACGACACAGACTTGCC DNA 2: GGCAAGTCTGTGTCGTAGCTGTGAGCGA |  | 21.4 ± 1.6
umaA (dsDNA) DNA 1: TGACGCAAGGCGAGATCACAGACCGAGA DNA 2: TCTCGGTCTGTGATCTCGCCTTGCGTCA |  | 1200 ± 58
ptrBa -162 (dsDNA) DNA 1: TTGTCCGCAGCTGGCTCACCGGCTCCGA DNA 2: TCGGAGCCGGTGAGCCAGCTGCGGACAA |  | 980 ± 77
cdh (dsDNA) DNA 1: GCGAGCAGGGCTGCCGCACAGCGATCTT DNA 2: AAGATCGCTGTGCGGCAGCCCTGCTCGC |  | 935 ± 52
Rv2010 (dsDNA) DNA 1: GAACTCGTGGCCGCCGCACAGCGGATGT DNA 2: ACATCCGCTGTGCGGCGGCCACGAGTTC |  | 637 ± 16
aroG (dsDNA) DNA 1: TTCGTCTCATCACGTCCACAGACGATGC DNA 2: GCATCGTCTGTGGACGTGATGAGACGAA |  | 1160 ± 41
phoP -42 (dsDNA) DNA 1: ACGAGCTTTCAGGAATTACACAATGACTGTG DNA 2: CACAGTCATTGTGTAATTCCTGAAAGCTCGT | no binding | 
cyp123 (dsDNA) DNA 1: AGATCCACCGCCGCATCACATCGGCGAT DNA 2: ATCGCCGATGTGATGCGGCGGTGGATCT | no binding | 
fadD21 (dsDNA) DNA 1: CCTGTTTCAGCACATGCACAGCATTGCA DNA 2: TGCAATGCTGTGCATGTGCTGAAACAGG |  | 50.3 ± 4.3
